Test results as given in patent publication US20130089516A1.
Where “and” joins values, the source holds several entries; their conditions need not be identical. Equal entries are not always repeated. Values belong to the substance of their own block, whether it stands above or below them.

Tests used:
[1] = target: IL-2 portion of the mouse IL-2/IL-2Rα fusion proteins (mouse) (UniProt P04351); assay: cell-based or functional assay
[2] = target: recombinant human IL-2 (Peprotech) (human) (UniProt P60568); assay: modified phage ELISA, human IL-2 coated; 2 µg/ml MQ1-17H12 added, then scFv-2 phage (competitor)
Sequence of recombinant human IL-2 (Peprotech) (human) (P60568 21-153 limits assumed): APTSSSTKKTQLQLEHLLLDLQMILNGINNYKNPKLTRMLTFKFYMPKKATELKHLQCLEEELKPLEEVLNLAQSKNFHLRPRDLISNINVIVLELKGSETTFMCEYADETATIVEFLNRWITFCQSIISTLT

[3] = target: mouse IL-2/IL-2Rα fusion proteins (2× and 4× linker lengths); assay: sandwich ELISA (JES6-1A12 capture, JES5H4 detection by the general methods), PSA-treated against buffer-treated fusion protein

Sequence of IL-2 portion of the mouse IL-2/IL-2Rα fusion proteins (mouse) (P04351 21-169 limits assumed): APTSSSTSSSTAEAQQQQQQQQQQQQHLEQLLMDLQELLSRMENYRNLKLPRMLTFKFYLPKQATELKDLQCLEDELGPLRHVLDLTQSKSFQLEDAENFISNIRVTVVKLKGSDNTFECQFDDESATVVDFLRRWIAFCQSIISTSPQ

attenuation of IL-2 biologic activity in the intact uncleaved fusion protein against the equivalent amount of free IL-2, CTLL-2 bioassay [1]: > 60 fold
increase of biologically active IL-2 after PSA cleavage of the fusion protein with the 2× linker, CTLL-2 / MTT assay [1]: 3.5 fold
increase of biologically active IL-2 after PSA cleavage of the fusion protein with the 4× linker, CTLL-2 / MTT assay [1]: 9 fold
Substance: IL-2Rα portion of the mouse IL-2/IL-2Rα fusion proteins (soluble form of the alpha chain of the IL-2 receptor) (from UniProt P01590 22-236)

percent blocking of scFv-2 phage binding [2]: 70%
Substance: neutralizing anti-human IL-2 monoclonal antibody MQ1-17H12 (eBioscience)

fold increase in the apparent amount of IL-2 detected after PSA cleavage [3]: 2 fold and 4 fold
Substance: rat anti-mouse IL-2 monoclonal antibody JES6-1A12 (BD Pharmingen)
